Laboratory results from the PETadex activity labels (doi:10.1021/acs.est.4c01495).

Tests used:
p-NP-C4 = conditions: 35 °C
gfPET = assay: Proxy for plastic degradation [Released monomer concentration (HPLC/LC-MS) (TPA+MHET)]; conditions: pH 8

B1: unnamed (protein)
chain: MNFPRASRLMQAAVLGGLMAVSAAATAQTNPYARGPNPTAASLEASAGPFTVRSFTVSRPSGYGAGTVYYPTNAGGTVGAIAIVPGYTARQSSIKWWGPRLASHGFVVITIDTNSTLDQPSSRSSQQMAALRQVASLNGTSSSPIYGKVDTARMGVMGWSMGGGGSLISAANNPSLKAAAPQAPWDSSTNFSSVTVPTLIFACENDSIAPVNSSALPIYDSMSRNAKQFLEINGGSHSCANSGNSNQALIGKKGVAWMKRFMDNDTRYSTFACENPNSTRVSDFRTANCS
p-NP-C4; part of the chain shown
  Km: 240 µM
  kcat: 15.1 s⁻¹
  kcat/Km: 62900 M⁻¹ s⁻¹
gfPET; 35 °C, 1 h, part of the chain shown
  Proxy for plastic degradation: 17 µM
gfPET; 35 °C, 3 h, part of the chain shown
  Proxy for plastic degradation: 38 µM
gfPET; 35 °C, 5 h, part of the chain shown
  Proxy for plastic degradation: 45 µM
gfPET; 35 °C, 7 h, part of the chain shown
  Proxy for plastic degradation: 55 µM
gfPET; 35 °C, 10 h, part of the chain shown
  Proxy for plastic degradation: 77 µM
gfPET; 50 °C, 1 h, part of the chain shown
  Proxy for plastic degradation: 10 µM
gfPET; 50 °C, 3 h, part of the chain shown
  Proxy for plastic degradation: 25 µM
gfPET; 50 °C, 5 h, part of the chain shown
  Proxy for plastic degradation: 50 µM
gfPET; 50 °C, 7 h, part of the chain shown
  Proxy for plastic degradation: 70 µM
gfPET; 50 °C, 10 h, part of the chain shown
  Proxy for plastic degradation: 209 µM

B2: unnamed (protein)
chain: MDGVLWRVRTAALMAALLALAAWALVWASPSVEAQSNPYQRGPNPTRSALTADGPFSVATYTVSRLSVSGFGGGVIYYPTGTSLTFGGIAMSPGYTADASSLAWLGRRLASHGFVVLVINTNSRFDYPDSRASQLSAALNYLRTSSPSAVRARLDANRLAVAGHSMGGGGTLRIAEQNPSLKAAVPLTPWHTDKTFNTSVPVLIVGAEADTVAPVSQHAIPFYQNLPSTTPKVYVELDNASHFAPNSNNAAISVYTISWMKLWVDNDTRYRQFLCNVNDPALSDFRTNNRHCQ
p-NP-C4
  Km: 300 µM
  kcat: 21.6 s⁻¹
  kcat/Km: 71900 M⁻¹ s⁻¹
gfPET; 35 °C, 1 h
  Proxy for plastic degradation: 5 µM
gfPET; 35 °C, 3 h
  Proxy for plastic degradation: 14 µM
gfPET; 35 °C, 5 h
  Proxy for plastic degradation: 39 µM
gfPET; 35 °C, 7 h
  Proxy for plastic degradation: 95 µM
gfPET; 35 °C, 10 h
  Proxy for plastic degradation: 182 µM
gfPET; 50 °C, 1 h
  Proxy for plastic degradation: 480 µM
gfPET; 50 °C, 3 h
  Proxy for plastic degradation: 1470 µM
gfPET; 50 °C, 5 h
  Proxy for plastic degradation: 2380 µM
gfPET; 50 °C, 7 h
  Proxy for plastic degradation: 3250 µM
gfPET; 50 °C, 10 h
  Proxy for plastic degradation: 4130 µM
